Results: the nanobody polyreactivity screen of Harvey et al. (2022)

test: yeast display, Sf9 membrane polyspecificity reagent, FACS + sequencing; frameworks hold sequencing errors
Method in brief: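 A nanobody's polyreactivity label depends on the gate it was sorted from. Yeast display cells were stained with 10% biotinylated, detergent-solubilized Sf9 membrane reagent for 1 hour at 4 °C, enriched on streptavidin microbeads and sorted by FACS. The low and high (top ~1%) gates were set on anti-HA fluorescence for expression and streptavidin fluorescence for reagent binding.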

Sequence | polyreactivity (PSR sort gate)
QVQLVESGGGLVQEGGSLRLSCAASGSIFYRYTMGWYRPAPGKERELVAAISSRGGSTYYADSVKGRFTISRDNAKNTVYLQMNCLKPEDTAVYYCAARYYRNPVFVIMDYWGQGTQVTVSS | high polyreactivity
QVQLVESGGGLVQEGGSLRLSCAASGSIVTLYAMGWSRQAPGKERELVAAITWYGGSTYYADSVKGRFTISRDNAKNTVYLQMNSLKPEDTAVYYCAKDYLAGGPCEGHVEREYDYWGQGTQVTVSS | low polyreactivity
QVQLVESGGGLVQEGGSLRLSCAASGSTFHSYAMGWYRQAPGKERELVAGINRTGGSTYYADSVKGRFTISRDNAKNTVYLQMNSLKPEDTAVYYCAAVSYYASDYRYDYWGQGTQVTVSS | low polyreactivity
QVQLVESGGGLVQEGGSLRLSCAASGSTFRRYAMGWYRQAPGKERELVASISRSGGSTYYADSVKGRFTISRDNAKNTVYLQMNSLKSEDTAVYYCSKKPYKSAYDYSTAYDYWGQGTLVTVSS | high polyreactivity
QVQLVESGGGLVQEGGSLRLSCAASGSTFRTYAMGWYRQAPGKERELVAAISGDTSTNYADSVKGRFTISRDNAKNTVYLQMNSLKPEDTAVYYCAAYWTTYATLWYDYWGQGTQVTVSS | low polyreactivity
QVQLVESGGGLVQEGGSLRLSCAASGTIFGIYAMGWYRKAPGKERELVAAISKSGGGTYYADSVKGRFTISRDNSKNTVFLQMNSLKPEDTAVNYCNVYVSKYRRFEYWGQGTQVTVSS | high polyreactivity
QVQLVESGGGLVQEGGSLRLSCAASVFIIDYYAMGWYRQAPGKERELVASISYNSVSTTYADSVKGRFTISRDNAKNTVYLQMNSLKPEDTAVYYCAATSWYWAYTYYYWGQGTQVTVSS | low polyreactivity
QVQLVESGGGLVQEGGSLRLSCAATGSIFSSYAMGWYRQAPGKERELVASINSAGSTNYADSVKGRFTISRDNAKITVYLQMNSLKPEDTAVYYCARGGAVVYLDYWGQGTQVTVSS | low polyreactivity
QVQLVESGGGLVQEGGSLRLSCADSGFIFRRYAMGWYIQAPGKERELVAAIRSDGSTNYADSVKGRFTISRDNAKNTVYLQMNSLKPEDTAVYYCAATYYSYTWFSQYYYWGQGTQVTVSS | high polyreactivity
QVQLVESGGGLVQEGGSLRLSCADSGSTFASYAMGWNRQAPGKERELVAAITDSGGSTYYADSVKGRFTISRDNAKNTVYLQMNSLKPEVTAVYDCAAEDQESNAAGGYWGQGTQVTVSS | low polyreactivity
QVQLVESGGGLVQEGGSLRLTCAASGSTFSDYAMGWYRQAPGKERELVAAISKRGGRTYYADSVKGRFTISRDNEKNTVYLQMNSLKPEDTAVYDCAADLPNAKWYGYDYWGQGTQVTVSS | high polyreactivity
QVQLVESGGGLVQEGGSLRVSCAASGIIFSSYVMGWYRQAPGKERELVAAISKSGARTSYADSVKGRFTISRDNAKNTVYLQMNSLKPEDTAVYYCAATFRLERPTSKHPRYDYWGQGTQVTVST | low polyreactivity
QVQLVESGGGLVQEGGSLSLSCAASGSTFTVYNMGWYRKAPGEERELVAANSRRGDSTYYADSVKGRFTISRDNAKNTVYSQMHSLKPEETAVYYSNARSAYGTGNQRGRRYYWGQGTEVTVSS | high polyreactivity
QVQLVESGGGLVQERVSLRLSCAASGFIFLFNAMGWNRQAPGKERELVAAISDDGSTYYADSLKGRFTISRDNAKNTVYLQMTSLKTEDTAVYYCAAEYYYDRYTLDYWGQGTQVTVSS | high polyreactivity
QVQLVESGGGLVQGGGSLRIICAASGFTFTDYAMGWYRQAPGKERELVAAIDGSGGRTYYAYSVKGRFTISRDNAKNTFYLQMNSLKPEHTAVYYCAAGLYSRLYWYRLDYWGQGTQVTVSS | low polyreactivity
QVQLVESGGGLVQGGGSLRLRCAASGFNFDWYTMGWYRQAPGKERELVAAITIGGSTDYADSVKGRFTISRDNAKNTVYLQMNSLKREDTAVYYCNALWYLSGTWYDYWGQGTQVTVSS | low polyreactivity
QVQLVESGGGLVQGGGSLRLSCAASGFTFYYNAMGSYRQAPGKERELVADITSGGDTYYADSVKGRFTISRDNAKNTVYLQRNSLKPEDTAVYYCAAELWGLFDYWGQGTEVTVSS | low polyreactivity
QVQLVESGGGLVQGGGSLRLSCAASGRIFDRYAMGWYRQAPGKERELVAAISSSGGSTYYADSVKGRFTISRDNAKNTVYLQMNSLKPEDTPVYYCNADYYVSKLDYWGQGTQVTVSS | high polyreactivity
QVQLVESGGGLVQGGGSLRLSCAASGRIFDYYTMGWYRPAPGKERELVAAISSGGSTNYADYVKGRFTISRDNAKNTVYLQMNSLKPEDTAVYYCNVDLTTVGHWYYYRPGYDYWEQGTQVTVSS | low polyreactivity
QVQLVESGGGLVQGGGSLRLSCAASGRNWSRYAMGWYRQAPGKERELVADITYSGGNTYYADSVKGRFTISRDNAKNTVYLQMNSLKPEDTAVYYCSTGWSWWTFDYWGQGTQVTVSS | high polyreactivity
QVQLVESGGGLVQGGGSLRLSCDASGFIFPAYARGWYRQAPGKEREWVAAISKSGGRTYYADSVKGRFTISRDNAKNPVYLQMNRLKPEDTAVNYCPARLYNYDTSSSFDYWGQGTQVNVSS | high polyreactivity
QVQLVESGGGLVQGGGSLRLSFAASGSIFWRNAMGWYRQAPGKERELVAAITSGGSTYYADSVKGRFTISRDNAKNTVYLQMNSLKPEDTAVYYCAAGGRWARWLFPSRYDYWGQGTQVTVSS | low polyreactivity

Sequence | polyreactivity (PSR sort gate)
QVQLVESGGGLVQGGGSLSLSCAASGITFLNYAMGWYRQAPGKERELVAAITWRGGRTYYADSVKGRFTISRDNEKNTVYLQMNSLKPEDTAVYYCARRPGYALTWRVSGRYDYWGQGTQVTVSS | high polyreactivity
QVQLVESGGGLVQGGSLRLSCAATGFTFPIYVMAWYRQAPGKERQLVDSISSVGSTNYADSVKGRFTISRDNAKNTVYLQMNSMKPEDTAVYYCNADAPNSYGGFDYWGQGTQVTVSS | low polyreactivity
QVQLVESGGGLVQGVGTLRLSCAASGITFVYYAMGWSRHAPVKERELFAAISSGGSSTYYADSVKGRFTMSRDTAKNTVYLQMHSQKPEDTAVYYCAATNYFPRLQWMDYWGQGTQVTVSS | low polyreactivity
QVQLVESGGGLVQPGCSLRLSCAASGSIFYAYDMGWYRQSPGKERQLVAAISWSGGTTYYADSVKGRFTISRDNAKNTVYLQMNSLIPEDTAVYYCAAREYYTDVHGTRRYDYWGQGTQVTVSS | low polyreactivity
QVQLVESGGGLVQPGGSLRLSCAASGFIFTLYAMGWYRQAPGKEREFFAAISWSDGSTTYADSVKGRFTISRDNAKNTVYLQMNSLKREDTAVYYCAAVTSSYIRGLVYHFYYWGQGTLVTVSS | low polyreactivity
QVQLVESGGGLVQPGGSLRLSCAASGFIYSYYAMGLYRPAPGKERELVAVITRSVGSTYYADSVKGRFTISRDNAKNTVYLQMNSLKPEYTAVYYCAAGYFYHFSRYTNRYGYWGQGTQVTVSS | high polyreactivity
QVQLVESGGGLVQPGGSLRLSCAASGRIFGRYAMGWYRQAPGKERELVAAISRGGTTNYADSVKGRFTISRDNAKNTVYLQMNSLKPEDTAVYYCAKSGPKRGQYDYWGQGTLVTVSS | high polyreactivity
QVQLVESGGGLVQPGGSLRLSCAASGSIFGSYDMGWYRQAPGKERELVAAITYSVGTTYYADSVKGRFTISRDNAKNTVYLQMNSLKPEDNAVYYCAADFAPVGLPSPFAVSEGEDDYWGQGTQVTVSS | low polyreactivity
QVQLVESGGGLVQPGGSLRLSCAASGSIFYRNAMGWYRQAPGKERELVAAITWSGVNTYYADSVKGRFTISRDNAKNTVYLQMNSLKPEDTAVYYCAVPSRYWLNRGFDYWGQGTQVTVSS | low polyreactivity
QVQLVESGGGLVQPGGSLRLSCAAYGLTFYGYTMGWYRQAPGKERELVASITRSGGSTYADSVKGRFTISRDNAKNTVYLQMNSLKPEDTAVFYCAAVYRARGYYYWGQGTQVTVSS | high polyreactivity
QVQLVESGGGLVQQGGILRLSCASSGSNFILNEMGWSRQAPRKDRELVATISSSDTSTYYADSVKGRFTISRDNAKNTVYVQMNSLKPEDTAVYYCNADYYTTSYLQRVYHYGVEYDYWGQGTQVTVSS | low polyreactivity
QVQLVESGGGLVQSGGSLRLICAASGRIFPYYAMGWYRQAPGKERELVATIRGRVGTTYYADSVKGRFTISRDNAKNTVYLQMTSLKPEDTAVYYCAKREYSRYTRVFGYGSWGQCTQVTVSS | high polyreactivity
QVQLVESGGGLVQSGGSLRLICAASGSTFGRYPMGWYRQAPGKERELVARISSGGSTTYADSVKGRFTISRDNAKNTVYFLRNSLKTEETAVYYSAADTPYWRYDYWGQGTQVTVSS | high polyreactivity
QVQLVESGGGLVQSGGSLRLSCAASGGTFRYNAMGRYRQAPGKERELVAAITSVGITNYADSVKGRFTISRDNAKNTVYLQMNSLNPEDTAVYYCAKRYYRYGARSWYYPYDYWGQGTQVTVSS | high polyreactivity
QVQLVESGGGLVQSGGSLRLSCAASGITLYWYAMGWYRQAPGKERELVAAITFNGGSTYADSVKGRFTISRDNAKNTVYLQMNSLKPEDTAVYYFASGDGPSLFDYWGQGTQVTVSS | low polyreactivity
QVQLVESGGGLVQSGGSLRLSCAASGRIFDWNVMGSYRQAPGKERELVSVINDSTGTTYYADSVKGRFTISRDNAKNTVYLQMNSLKPEDTAVYYCAAYVWISSEEFYYWGQGTQVTVSS | low polyreactivity
QVQLVESGGGLVQSGGSLRLSCAASGRIFFYYAMGGYRQAPGKERELVATIRDGGGTTYYADSVKRRFTISIDNAKNTVYLQMNSLKTDDTAFYYCNVDVWRKYYYWGQGTQVTVSS | low polyreactivity
QVQLVESGGGLVQSGGSLRLSCAASGRIFYYNAMGWYRQAPGKERELVAAITSSSGSSTYYADSVKGRFTISRDNAKNTVYLQMNSLKPEDTAVYYCAADATFIIRYLSRSDYWGQGTQVTVSS | low polyreactivity
QVQLVESGGGLVQSGGSLRLSCAASGRIIKSYAMGRYRQAPGKERELVAAISRSGGRTYYADSVKGRFSISRDNAKNTVYLQMISLKPEDTAVYYCAATTFVAPSWGQGTQVTVSS | low polyreactivity
QVQLVESGGGLVQSGGSLRLSCAASGRTFGYYDMGWYRQAPGKERELVASITRRGGSTYYADSVKGRFTISRDNAKNTVYLQMNSLKPEDTAGYYCAARYKARYEPARYDYWGQGTQVTVSS | high polyreactivity
QVQLVESGGGLVQSGGSLRLSCAASGRTFSYYAMGWYRQAPGKERELVAAISSGGSTNYADSVKGRFTISRDNAKNTVYLQMNSLKPEDTEVYYCATSSIWGSGRVRWVTYYYWGQGTQVTVSS | low polyreactivity
